In patent US20150196651A1 (published 2015):
Square brackets hold non-standard residues; d marks the D form. Ends that are not written are not given here. * marks the point of attachment. Palmitoyl = CCCCCCCCCCCCCCCC(=O)*; Myristoyl = CCCCCCCCCCCCCC(=O)*; Nle = CCCC[C@H](N)C(=O)O; NOMe = CON*

T1: human PrRP receptor GPR10 (human, UniProt P49683 1-370)
T1 construct: whole, on cells; also called GPR10 human receptor transfected in CHO cells; human GPR10 receptor
T1 sequence (looked up): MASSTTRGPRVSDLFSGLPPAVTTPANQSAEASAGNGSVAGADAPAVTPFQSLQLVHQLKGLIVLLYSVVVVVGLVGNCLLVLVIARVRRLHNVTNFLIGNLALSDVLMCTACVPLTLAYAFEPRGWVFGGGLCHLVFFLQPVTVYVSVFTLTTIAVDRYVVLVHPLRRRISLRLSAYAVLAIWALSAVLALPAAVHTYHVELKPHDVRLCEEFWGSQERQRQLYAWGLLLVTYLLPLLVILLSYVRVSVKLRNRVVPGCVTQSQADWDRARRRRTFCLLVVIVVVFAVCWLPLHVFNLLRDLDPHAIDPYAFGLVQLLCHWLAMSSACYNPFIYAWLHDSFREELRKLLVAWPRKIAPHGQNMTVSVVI

T2: rat PrRP receptor in RC-4B/C cells (rat, UniProt Q64121 1-370)
T2 construct: whole, on cells; endogenous receptor of RC-4B/C cells (ATCC); also called rat receptor; GPR10 receptor expressed in rat hypophyseal cells
T2 sequence (looked up): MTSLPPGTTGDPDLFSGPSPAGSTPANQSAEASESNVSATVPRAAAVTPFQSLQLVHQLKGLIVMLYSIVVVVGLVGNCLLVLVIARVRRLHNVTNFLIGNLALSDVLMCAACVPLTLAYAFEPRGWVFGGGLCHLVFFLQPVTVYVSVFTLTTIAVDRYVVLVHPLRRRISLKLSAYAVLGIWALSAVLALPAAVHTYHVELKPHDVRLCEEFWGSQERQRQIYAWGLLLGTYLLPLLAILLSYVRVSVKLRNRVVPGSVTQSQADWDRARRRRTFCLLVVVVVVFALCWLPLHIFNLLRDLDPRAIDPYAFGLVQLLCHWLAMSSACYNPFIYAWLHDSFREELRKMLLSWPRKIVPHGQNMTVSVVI

B1: analog no. 45 (peptide)
peptide: Palmitoyl-SRTHRHSMEIRTPDINPAWYASRGIRPVGRF-NOMe
SMILES: CCCCCCCCCCCCCCCC(=O)N[C@@H](CO)C(=O)N[C@@H](CCCNC(=N)N)C(=O)N[C@H](C(=O)N[C@@H](Cc1c[nH]cn1)C(=O)N[C@@H](CCCNC(=N)N)C(=O)N[C@@H](Cc1c[nH]cn1)C(=O)N[C@@H](CO)C(=O)N[C@@H](CCSC)C(=O)N[C@@H](CCC(=O)O)C(=O)N[C@H](C(=O)N[C@@H](CCCNC(=N)N)C(=O)N[C@H](C(=O)N1CCC[C@H]1C(=O)N[C@@H](CC(=O)O)C(=O)N[C@H](C(=O)N[C@@H](CC(N)=O)C(=O)N1CCC[C@H]1C(=O)N[C@@H](C)C(=O)N[C@@H](Cc1c[nH]c2ccccc12)C(=O)N[C@@H](Cc1ccc(O)cc1)C(=O)N[C@@H](C)C(=O)N[C@@H](CO)C(=O)N[C@@H](CCCNC(=N)N)C(=O)NCC(=O)N[C@H](C(=O)N[C@@H](CCCNC(=N)N)C(=O)N1CCC[C@H]1C(=O)N[C@H](C(=O)NCC(=O)N[C@@H](CCCNC(=N)N)C(=O)N[C@@H](Cc1ccccc1)C(=O)NOC)C(C)C)[C@@H](C)CC)[C@@H](C)CC)[C@@H](C)O)[C@@H](C)CC)[C@@H](C)O
B2: analog no. 44 (peptide)
peptide: Palmitoyl-SRTHRHSMEIRTPDINPAWYASRGIRPVGRF-NHMe
SMILES: CCCCCCCCCCCCCCCC(=O)N[C@@H](CO)C(=O)N[C@@H](CCCNC(=N)N)C(=O)N[C@H](C(=O)N[C@@H](Cc1c[nH]cn1)C(=O)N[C@@H](CCCNC(=N)N)C(=O)N[C@@H](Cc1c[nH]cn1)C(=O)N[C@@H](CO)C(=O)N[C@@H](CCSC)C(=O)N[C@@H](CCC(=O)O)C(=O)N[C@H](C(=O)N[C@@H](CCCNC(=N)N)C(=O)N[C@H](C(=O)N1CCC[C@H]1C(=O)N[C@@H](CC(=O)O)C(=O)N[C@H](C(=O)N[C@@H](CC(N)=O)C(=O)N1CCC[C@H]1C(=O)N[C@@H](C)C(=O)N[C@@H](Cc1c[nH]c2ccccc12)C(=O)N[C@@H](Cc1ccc(O)cc1)C(=O)N[C@@H](C)C(=O)N[C@@H](CO)C(=O)N[C@@H](CCCNC(=N)N)C(=O)NCC(=O)N[C@H](C(=O)N[C@@H](CCCNC(=N)N)C(=O)N1CCC[C@H]1C(=O)N[C@H](C(=O)NCC(=O)N[C@@H](CCCNC(=N)N)C(=O)N[C@@H](Cc1ccccc1)C(=O)NC)C(C)C)[C@@H](C)CC)[C@@H](C)CC)[C@@H](C)O)[C@@H](C)CC)[C@@H](C)O
B3: analog no. 50 (peptide)
peptide: TPDINPK(Palmitoyl)WYASRGIRPVGRF-NH2
modifications: N-terminus assumed
SMILES: CCCCCCCCCCCCCCCC(=O)NCCCC[C@H](NC(=O)[C@@H]1CCCN1C(=O)[C@H](CC(N)=O)NC(=O)[C@@H](NC(=O)[C@H](CC(=O)O)NC(=O)[C@@H]1CCCN1C(=O)[C@@H](N)[C@@H](C)O)[C@@H](C)CC)C(=O)N[C@@H](Cc1c[nH]c2ccccc12)C(=O)N[C@@H](Cc1ccc(O)cc1)C(=O)N[C@@H](C)C(=O)N[C@@H](CO)C(=O)N[C@@H](CCCNC(=N)N)C(=O)NCC(=O)N[C@H](C(=O)N[C@@H](CCCNC(=N)N)C(=O)N1CCC[C@H]1C(=O)N[C@H](C(=O)NCC(=O)N[C@@H](CCCNC(=N)N)C(=O)N[C@@H](Cc1ccccc1)C(N)=O)C(C)C)[C@@H](C)CC
B4: analog no. 49 (peptide)
peptide: TPDIK(Palmitoyl)PAWYASRGIRPVGRF-NH2
modifications: N-terminus assumed
SMILES: CCCCCCCCCCCCCCCC(=O)NCCCC[C@H](NC(=O)[C@@H](NC(=O)[C@H](CC(=O)O)NC(=O)[C@@H]1CCCN1C(=O)[C@@H](N)[C@@H](C)O)[C@@H](C)CC)C(=O)N1CCC[C@H]1C(=O)N[C@@H](C)C(=O)N[C@@H](Cc1c[nH]c2ccccc12)C(=O)N[C@@H](Cc1ccc(O)cc1)C(=O)N[C@@H](C)C(=O)N[C@@H](CO)C(=O)N[C@@H](CCCNC(=N)N)C(=O)NCC(=O)N[C@H](C(=O)N[C@@H](CCCNC(=N)N)C(=O)N1CCC[C@H]1C(=O)N[C@H](C(=O)NCC(=O)N[C@@H](CCCNC(=N)N)C(=O)N[C@@H](Cc1ccccc1)C(N)=O)C(C)C)[C@@H](C)CC
B5: analog no. 26 (peptide)
peptide: Myristoyl-[dF][dR]GVPRIGRGTYWAPNIDPT-NH2
SMILES: CCCCCCCCCCCCCC(=O)N[C@H](Cc1ccccc1)C(=O)N[C@H](CCCNC(=N)N)C(=O)NCC(=O)N[C@H](C(=O)N1CCC[C@H]1C(=O)N[C@@H](CCCNC(=N)N)C(=O)N[C@H](C(=O)NCC(=O)N[C@@H](CCCNC(=N)N)C(=O)NCC(=O)N[C@H](C(=O)N[C@@H](Cc1ccc(O)cc1)C(=O)N[C@@H](Cc1c[nH]c2ccccc12)C(=O)N[C@@H](C)C(=O)N1CCC[C@H]1C(=O)N[C@@H](CC(N)=O)C(=O)N[C@H](C(=O)N[C@@H](CC(=O)O)C(=O)N1CCC[C@H]1C(=O)N[C@H](C(N)=O)[C@@H](C)O)[C@@H](C)CC)[C@@H](C)O)[C@@H](C)CC)C(C)C
notes: scrambled peptide; also called 26 scram
B6: analog no. 47 (peptide)
peptide: Palmitoyl-SRAHQHSMETRTPDINPAWYTGRGIRPVGRF-NH2
SMILES: CCCCCCCCCCCCCCCC(=O)N[C@@H](CO)C(=O)N[C@@H](CCCNC(=N)N)C(=O)N[C@@H](C)C(=O)N[C@@H](Cc1c[nH]cn1)C(=O)N[C@@H](CCC(N)=O)C(=O)N[C@@H](Cc1c[nH]cn1)C(=O)N[C@@H](CO)C(=O)N[C@@H](CCSC)C(=O)N[C@@H](CCC(=O)O)C(=O)N[C@H](C(=O)N[C@@H](CCCNC(=N)N)C(=O)N[C@H](C(=O)N1CCC[C@H]1C(=O)N[C@@H](CC(=O)O)C(=O)N[C@H](C(=O)N[C@@H](CC(N)=O)C(=O)N1CCC[C@H]1C(=O)N[C@@H](C)C(=O)N[C@@H](Cc1c[nH]c2ccccc12)C(=O)N[C@@H](Cc1ccc(O)cc1)C(=O)N[C@H](C(=O)NCC(=O)N[C@@H](CCCNC(=N)N)C(=O)NCC(=O)N[C@H](C(=O)N[C@@H](CCCNC(=N)N)C(=O)N1CCC[C@H]1C(=O)N[C@H](C(=O)NCC(=O)N[C@@H](CCCNC(=N)N)C(=O)N[C@@H](Cc1ccccc1)C(N)=O)C(C)C)[C@@H](C)CC)[C@@H](C)O)[C@@H](C)CC)[C@@H](C)O)[C@@H](C)O
B7: analog no. 46 (peptide)
peptide: Myristoyl-SRAHQHSMETRTPDINPAWYTGRGIRPVGRF-NH2
SMILES: CCCCCCCCCCCCCC(=O)N[C@@H](CO)C(=O)N[C@@H](CCCNC(=N)N)C(=O)N[C@@H](C)C(=O)N[C@@H](Cc1c[nH]cn1)C(=O)N[C@@H](CCC(N)=O)C(=O)N[C@@H](Cc1c[nH]cn1)C(=O)N[C@@H](CO)C(=O)N[C@@H](CCSC)C(=O)N[C@@H](CCC(=O)O)C(=O)N[C@H](C(=O)N[C@@H](CCCNC(=N)N)C(=O)N[C@H](C(=O)N1CCC[C@H]1C(=O)N[C@@H](CC(=O)O)C(=O)N[C@H](C(=O)N[C@@H](CC(N)=O)C(=O)N1CCC[C@H]1C(=O)N[C@@H](C)C(=O)N[C@@H](Cc1c[nH]c2ccccc12)C(=O)N[C@@H](Cc1ccc(O)cc1)C(=O)N[C@H](C(=O)NCC(=O)N[C@@H](CCCNC(=N)N)C(=O)NCC(=O)N[C@H](C(=O)N[C@@H](CCCNC(=N)N)C(=O)N1CCC[C@H]1C(=O)N[C@H](C(=O)NCC(=O)N[C@@H](CCCNC(=N)N)C(=O)N[C@@H](Cc1ccccc1)C(N)=O)C(C)C)[C@@H](C)CC)[C@@H](C)O)[C@@H](C)CC)[C@@H](C)O)[C@@H](C)O

molecular target: T1, human PrRP receptor GPR10; assay: competition with 125I-human PrRP31, CHO cells with human GPR10
Description: CHO cells transfected with human PrRP receptor GPR10 (Perkin Elmer, USA) were grown on 24-well plates coated with polyethyleneimine. […] The following agents were used for the experiment: binding buffer (25 mmol.1⁻¹ Tris, pH 7.4; 118 mmol.1⁻¹ NaCl, 10 mmol.1⁻¹ MgCl₂, 1 mmol.1⁻¹ CaCl₂, 5.5 mmol.1⁻¹ glucose, 0.5 mg/ml BSA), unlabeled analogs of PrRP (i.e. the analog being tested) at a final concentration between 10⁻¹¹ to 10⁻⁴ mol.1⁻¹, and radiolabeled human ¹²⁵1-PrRP31 at a final concentration of 5×10⁻¹¹ mol.1⁻¹.
(§1) Plates were incubated for 60 minutes at room temperature. After incubation, the cells were solubilized in 0.1 mol/l solution of NaOH, and the radioactivity bound to the cells was counted using a γ-counter. The experiments were performed in duplicate, and repeated at least three times.

Binder	% of PrRP31 [%]	Ki [µM]
B1	92	
B2	123	
SRTHRHSMEIK(Palmitoyl)TPDINPAWYASRGIRPVGRF-NH2 [analog no. 48]	61	0.00637
B3	69	0.00564
B4	90	0.00434

molecular target: T2, rat PrRP receptor in RC-4B/C cells; assay: competition with 125I-rat PrRP31, RC-4B/C cells
Description: The rat pituitary cell line RC-4B/C (ATCC, Manassas, USA) was grown on 24-well plates which had their bottom coated with polyethyleneimine. The cells were grown to the optimal density of 300-450 thousand cells per well.
as §1

Binder	% of PrRP31 [%]	Ki [µM]
B5	1.4	0.364
TPDINPAWYASRGIRPVGRF-NH2 (synthetic peptide) [Human PrRP20]	277	0.00178
B6	1200	0.00041
SHQRPADTHWYPRG[Nle]FPTIGRITARNGEVSR (scrambled peptide; also called 19 scram) [analog no. 19]	4e-05	1320
B7	657	0.00075
